Consider 14 molecules from US20090304719A1 (University of California, published 2009).

Bridges are numbered along the chain shown (N, C = ends). Where no end group is shown, it is not given here. CPX = display scaffold, circularly permuted E. coli OmpX, fused C-terminal

The target in assay [1] is T1, UC4F10-11 hamster anti-mouse CTLA4 antibody.
T1 construct: Whole antibody, biotinylated or Dylight-labeled in the sorts; also called mouse anti-CTLA4 antibody (clone UC4 F10-1); anti-CTLA4
The assay can be described thus: bacterial display screening against anti-CTLA4 antibody; assay for this peptide not detailed.

In a further assay the target is T2, anti-VEGF scFv TBM.
T2 construct: The design included a His6 tag at the N-terminus and a TEV site; also called anti-VEGF single chain Fv
T2 sequence (scFv, as listed by the source): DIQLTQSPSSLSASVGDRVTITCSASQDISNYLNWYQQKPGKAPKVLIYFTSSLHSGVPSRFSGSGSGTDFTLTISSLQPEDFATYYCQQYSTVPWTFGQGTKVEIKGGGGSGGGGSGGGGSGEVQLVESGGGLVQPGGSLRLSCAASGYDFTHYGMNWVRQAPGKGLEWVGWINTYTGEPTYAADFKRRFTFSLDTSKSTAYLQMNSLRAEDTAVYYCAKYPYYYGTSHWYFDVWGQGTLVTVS
The assay can be described thus: FACS, peptide displayed on bacteria, anti-VEGF scFv; clones selected with labeled ranibizumab. As for the experimental part: Ranibizumab was used to screen a pooled random peptide library, consisting of peptides that are X₁₅ (8.3×10⁹), X₄CX₇CX₄ (3.6×10⁹), or X₁₂CX₃ (1.1×10⁹), where X is any amino acid and the number represents the total diversity of the library. The total diversity of the pooled library was 1.3×10¹⁰. The screening consisted of one round of MACS and […] of FACS sorting. […] In the first FACS screen, positive cells isolated in the MACS screen were probed with 500 nM biotinylated-ranibizumab, and visualized with neutrAvidin-PE (Molecular Probes, Eugene, Oreg.). The second and third rounds of FACS selections were done with 500 nM and then 100 nM Alexa-labeled ranibizumab in the presence of 20 uM IgG. Individual clones were sequenced and subsequently verified for their ability to bind anti-VEGF scfv by FACS analysis.

For assay [2], the target named is T3, VEGF (UniProt P15692-4 27-191, limits assumed, biotinylated in the FACS assays (sites not given)).
T3 construct: Species and isoform are never stated; also called labeled VEGF; biotinylated VEGF
T3 sequence (P15692 other isoform, or with tags, fused parts or gaps limits assumed): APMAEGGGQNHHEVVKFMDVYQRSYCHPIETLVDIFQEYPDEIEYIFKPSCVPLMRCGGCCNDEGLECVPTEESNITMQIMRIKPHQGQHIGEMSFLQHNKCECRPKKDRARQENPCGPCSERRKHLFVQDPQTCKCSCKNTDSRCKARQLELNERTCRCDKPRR
The assay can be described thus: SPR (Biacore), VEGF amine-coupled to a CM5 chip, soluble MBP fusion injected with and without 30 nM MMP-2 (FIG. 27).

Assay [3] addresses T3, VEGF. The experiment in a line: FACS, construct displayed on E. coli (CPX), labeled VEGF; treated against untreated.
The target in assay [4] is T3, VEGF. The experiment in a line: FACS, ABP displayed on E. coli (CPX), labeled VEGF; MMP-2 treated against untreated. On the procedure: (§1) In experiments involving addition of enzyme, 30 nM MMP-2 was included in the Tris-Cl buffer (no enzyme added to the control reaction), and the reaction mixture was incubated at room temperature for 2 hours. Cells were then removed and diluted 1:100 in PBS (pH 7.4) to stop the reaction, pelleted by centrifugation, and resuspended in 30 microliters of refrigerated PBS containing 25 nM biotinylated VEGF. After incubation in the refrigerator on a rotary shaker for 45 minutes, cells were pelleted at 4° C. and resuspended in refrigerated PBS containing 50 nM Streptavidin-Phycoerythrin fluorescent conjugate. After incubation in the refrigerator on a rotary shaker for 45 minutes, cells were pelleted at 4° C. and resuspended in PBS and red fluorescence was measured for analysis or sorting on a FACSAria cell sorter. The fluorescence of cells treated with enzyme was compared to control samples to determine the increase in VEGF binding.

Assay [5] has as its target T3, VEGF. The assay can be described thus: FACS, construct displayed on E. coli (CPX), labeled VEGF; with MMP-2 against without (FIG. 23). As for the experimental part: as §1
(§2) In an additional experiment, the fluorescence values for a cysteine constrained loop structure were determined in the presence and absence of MMP-2 and compared with the fluorescence values for library clones 4.2A.11 (a.k.a. 4-2A-11) and 2.3B.5 (a.k.a. 2-3B-5) in the presence and absence of MMP-2.

For assay [6], the target named is T3, VEGF. The assay can be described thus: Kd,app of VEGF binding to the construct displayed on E. coli, with MMP-2 against without (FIG. 13).
The target in assay [7] is T3, VEGF. The assay can be described thus: FACS, clone displayed on E. coli (CPX), labeled VEGF; with MMP-2 against without (FIG. 23). On the procedure:
as §1, §2

The target of assay [8] is T3, VEGF. The experiment in a line: Kd,app of VEGF binding to the clone displayed on E. coli, with MMP-2 against without (FIG. 14).
For assay [9], the target named is T3, VEGF. The assay can be described thus: FACS, construct displayed on E. coli (CPX), labeled VEGF; MMP-2 treated against untreated (FIG. 25). On the procedure: as §1

T1 sequence (VH, as listed by the source limits assumed, chain 1 of 2): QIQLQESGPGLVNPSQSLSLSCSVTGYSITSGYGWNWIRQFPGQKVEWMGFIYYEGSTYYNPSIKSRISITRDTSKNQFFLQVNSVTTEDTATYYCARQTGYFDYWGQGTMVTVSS
T1 sequence (VL, as listed by the source limits assumed, chain 2 of 2): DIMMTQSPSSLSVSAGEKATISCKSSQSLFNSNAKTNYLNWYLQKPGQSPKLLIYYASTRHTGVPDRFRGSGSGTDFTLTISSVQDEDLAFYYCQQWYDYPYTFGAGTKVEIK

Turning to PCSEWQSMVQPRCYY (also called MMneg) [Negative control MM (does not bind anti-CTLA4)], the binding result in assay [1] is “no binding”. As to GAMACYNIFEYWCSAMK (also called 315 MM) [JS315], the binding result in the assay with anti-VEGF scFv TBM was “binds”. Same read-out and setting: in the case of GVGLCYTILEQWCEMGR (also called 313 MM) [JS313] it was “binds”.

B1: maltose-binding protein (MBP) fusion of ABP clone 2.3B.5 (designed binder, not shown: large carriers; small tags and cut ends)
chain: CEYAFGPLGLAGGGSGNFGYGKWEWDYGKWLEKVGGC
modifications: also: fusion with maltose-binding protein (order not certain), disulfide Cys1–C-terminal Cys possible
notes: Soluble protein; the order MBP then ABP is my reading and is not certain; also called 2.3B.5 (2-3B-5) fusion; MBP-ABP fusion
Take B1: the “fold increase in binding response in the presence of MMP-2” value in the assay with VEGF [2] is about 4 fold.

B2: cysteine constrained loop ABP (designed binder)
chain: GQSGQGCGSGPLGLAGGGSGNFGYGKWEWDYGKWLEKVGGC-{CPX}
modifications: disulfide 7-41 (inferred); also: fused C-terminal to CPX display scaffold, letters not given here
notes: Tested untreated, after MMP-2 treatment and after DTT reduction; also called cysteine constrained parent; cysteine constrained loop structure; not shown: CPX display scaffold (circularly permuted E. coli OmpX), fused C-terminal of the ABP
B2: the fold switching activity with VEGF [3] was found to be 2 fold. In addition, the “fold increase in fluorescence after MMP-2 treatment” value in the assay with VEGF [4] was about 2.6 fold. Further, the “fold increase in fluorescence in the presence of MMP-2” value in the assay with VEGF [5] was about 3 fold. The “fold improvement in Kd,app in the presence of MMP-2” value in the assay with VEGF [6] is about 3.4 fold. In the case of VHAWEQLVIQELYHC (also called 311 MM) [JS311], the binding result with anti-VEGF scFv TBM is on record as “binds”. For the molecule GHGMCYTILEDHCDRVR (also called 292 MM) [JS292], the binding result with anti-VEGF scFv TBM is recorded as “binds”. The same measure, in the same setting: in the case of RPPCCRDYSILECCKSD [JS314] it was “binds”; in that of PCSEWQSMVQPRCYYGG [JS306], “binds”. Consider NVECCQNYNLWNCCGGR (also called 308 MM) [JS308], for which the binding result with anti-VEGF scFv TBM was “binds”. As to ATAVWNSMVKQSCYMQG (also called 283 MM) [JS283], the binding result with anti-VEGF scFv TBM was “binds”.

B3: ABP library clone 4-2A-11 (designed binder)
chain: GQSGQGEDEEGPLGLAGGGSGNFGYGKWEWDYGKWLEKVGGG
notes: not shown: CPX display scaffold (circularly permuted E. coli OmpX), fused C-terminal of the ABP
B3: the “fold increase in fluorescence in the presence of MMP-2” value with VEGF [7] is about 5.7 fold.

B4: ABP library clone 2-2A-5 (designed binder)
chain: GQSGQPEWGCGPLGLAGGGSGNFGYGKWEWDYGKWLEKVGGC-{CPX}
modifications: disulfide 10-42 (inferred); also: fused C-terminal to CPX display scaffold, letters not given here
notes: Tested untreated, after MMP-2 and after DTT; not shown: CPX display scaffold (circularly permuted E. coli OmpX), fused C-terminal of the ABP
As to B4, the “fold improvement in Kd,app in the presence of MMP-2” value with VEGF [8] is about 4.8 fold.

B5: GS control (designed binder)
chain: GQSGQGGSGGSGGSGGSGGSPLGLAGGGSGNFGYGKWEWDYGKWLEKVGGG
modifications: also: fused C-terminal to CPX display scaffold, letters not given here
notes: Control lacking the cysteine-cysteine disulfide bond; also called GS control polypeptide; not shown: CPX display scaffold (circularly permuted E. coli OmpX), fused C-terminal of the construct
In the case of B5, the “fold increase in fluorescence after enzyme cleavage” value in the assay with VEGF [9] is under 2 fold.
